B1: Antibody 15, monomeric Fab (Fab, V domains shown)
VH: QVQLVQSGSELKKPGASVKVSCKASGYTFTSSGISWVRQAPGQGLEWMGEILPRSGYTNYNQGFTGRFVFSADKSVSTAYLQISSLKAEDTAVYYCARDFKGGRYAMDYWGQGTTVTVSS
VL: SIQMTQSPSSLSASVGDRVTITCQASQSVRYNVAWYQQKPGKAPKLLIYYASNRYEGVPSRFSGSGSGTDFTFTISSLQPEDIATYFCQHHYSSPLTFGGGTKLEIK
B2: Antibody 16, monomeric Fab (Fab, V domains shown)
VH: QVQLVQSGSELKKPGASVKVSCKASGYTFTSSGISWVRQAPGQGLEWMGEILPRSGYTNYNQGFTGRFVFSADKSVSTAYLQISSLKAEDTAVYYCARDFKGGRYAMDYWGQGTTVTVSS
VL: SIQMTQSPSSLSASVGDRVTITCQASQSVRYNVAWYQQKPGKAPKLLIYYASNRYEGVPSRFSGSGSGTDFTFTISSLQPEDIATYFCQHHYSSPLTFGGGTKLEIK
notes: Same VH and VL as Antibody 15; The two antibodies differ only in the silencing mutations of the heavy chain constant region
B3: Antibody 18, monomeric Fab (Fab, V domains shown)
VH: QVQLVQSGSELKKPGASVKVSCKASGYTFTSSGISWVRQAPGQGLEWMGEIQPRSGYTNYNQGFTGRFVFSADKSVSTAYLQISSLKAEDTAVYYCARDKGPARYTMDYWGQGTTVTVSS
VL: SIQMTQSPSSLSASVGDRVTITCQASQSIRYNVAWYQQKPGKAPKLLIYYASNRYEGVPSRFSGSGSGTDFTFTISSLQPEDIATYYCQHHYSSPLTFGGGTKLEIK
B4: Antibody 12, monomeric Fab (Fab, V domains shown)
VH: QVQLVQSGSELKKPGASVKVSCKASGYTFTSSGISWVRQAPGQGLEWMGEILPRSGYTNYNQGFTGRFVFSADKSVSTAYLQISSLKAEDTAVYYCARDFKGGRYAMDYWGQGTTVTVSS
VL: SIQMTQSPSSLSASVGDRVTITCQASQSVRYNVAWYQQKPGKAPKLLIYYASNRYDGVPSRFSGSGSGTDFTFTISSLQPEDIATYFCQHHYSSPLTFGGGTKLEIK
B5: Antibody 13, monomeric Fab (Fab, V domains shown)
VH: QVQLVQSGSELKKPGASVKVSCKASGYTFTSSGISWVRQAPGQGLEWMGEILPRSGYTNYNQGFTGRFVFSADKSVSTAYLQISSLKAEDTAVYYCARDKGPSRYTMDYWGQGTTVTVSS
VL: SIQMTQSPSSLSASVGDRVTITCQASQSVRYNVAWYQQKPGKAPKLLIYYASNRYDGVPSRFSGSGSGTDFTFTISSLQPEDIATYFCQHHYSSPLTFGGGTKLEIK
B6: Antibody 17, monomeric Fab (Fab, V domains shown)
VH: QVQLVQSGSELKKPGASVKVSCKASGYTFTSSGISWVRQAPGQGLEWMGEIQPRSGYTNYNQGFTGRFVFSADKSVSTAYLQISSLKAEDTAVYYCARDKGPARYTMDYWGQGTTVTVSS
VL: SIQMTQSPSSLSASVGDRVTITCQASQSVRYNVAWYQQKPGKAPKLLIYYASNRYEGVPSRFSGSGSGTDFTFTISSLQPEDIATYFCQHHYSSPLTFGGGTKLEIK
B7: anti-LPAR1 mAb with the VH of SEQ ID NO: 369 and VL of SEQ ID NO: 39 (antibody, IgG1, V domains shown)
VH: QVQLVQSGSELKKPGASVKVSCKASGYTFTSSGISWVRQAPGQGLEWMGEILPRSGYTNYNQGFTGRFVFSADKSVSTAYLQISSLKAEDTAVYYCARDFASARYAMDYWGQGTTVTVSS
VL: SIQMTQSPSSLSASVGDRVTITCQASQSVRYNVAWYQQKPGKAPKLLIYYASNRYTGVPSRFSGSGSGTDFTFTISSLQPEDIATYFCQHHYSSPLTFGGGTKLEIK
notes: also called huVH4_Q61A97A99G104 (VH); 11 VL
B8: 63D8 (antibody, IgG1, V domains shown)
VH: EVKLLESGGGLVQPGGSLKLSCTASGFDFSRYWMSWVRQAPGKGLEWIGEINPSRSAINYSPSLKDKFIISRDNAKNTLYLQMSKVRSEDTALYYCARQGQRLRYGMDYWGQGTSVTVSS
VL: DIVMTQSPNFMSTSVGDRVSVTCRASQDVRTAVAWYQQKPGRSPKLLIYWTSTRHTGVPDRFTGSGSGTDYTLTISSVQAADLALYYCQQHYGTPLTFGAGTNLELK
notes: First found as a mouse hybridoma antibody
B9: Antibody 4 (antibody, IgG1, V domains shown)
VH: QVQLQQSGAELARPGASVKLSCKASGYTFTSSGISWVKQRTGQGLEWIGEIYPRSGYTNYNEKFKGKASLTADKSSRTAYMELRSLTSEDSAVYFCARDYDNSRYALDYWGQGTSVTVSS
VL: SIVMTQTPKFLPVSAGDRVTMTCKASQSVGYNVAWYQQKTGQSPKLLIYYASNRYTGVPDRFTGSGSGTDFTFTISSVQVEDLAVYFCQHHYSSPLTFGAGTKLELK

T2 sequence (Q92633 whole entry): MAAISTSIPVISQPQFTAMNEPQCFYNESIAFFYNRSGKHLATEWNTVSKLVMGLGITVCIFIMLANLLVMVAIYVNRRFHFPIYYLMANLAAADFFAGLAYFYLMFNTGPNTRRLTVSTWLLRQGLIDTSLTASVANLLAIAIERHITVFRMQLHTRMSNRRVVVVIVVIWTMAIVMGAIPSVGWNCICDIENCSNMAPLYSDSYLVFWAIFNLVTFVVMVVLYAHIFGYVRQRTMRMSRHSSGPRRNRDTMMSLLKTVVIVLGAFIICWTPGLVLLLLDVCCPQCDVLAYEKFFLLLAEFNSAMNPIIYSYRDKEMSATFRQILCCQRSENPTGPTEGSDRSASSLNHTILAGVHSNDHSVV

The target in the first assay is T1, LPAR1 (on CHO cells; species not stated) (UniProt Q92633 1-364).
T1 construct: whole, on cells; also called CHO-LPAR1 cells
T1 sequence (Q92633 whole entry): as above
Put plainly: KinExA (method 1.14), monomeric Fab as constant binding partner, CHO-LPAR1 cells titrated. Here is the method:
The monomeric affinity constant KD for the interaction of antibodies with LPAR1 was determined using monomeric Fabs derived from the antibodies, using the KinExA method. In this method, the concentration of unbound antibody is measured against a range of antigen concentrations. Because KD=([Free antigen][Free antibody])/[Antigen-antibody complex], the value of KD can be deduced from these measurements. CHO-LPAR1 cells, the antigen source, are titrated in a background of constant binding partner (CBP, e.g. a Fab to be tested). Samples are gently rocked until equilibrium is reached. After incubation, cells are centrifuged and the free CBP is removed without disturbing the cell pellet. Beads coated with Anti-Species are used to capture a portion of free CBP. Captured CBP is detected with a fluorescently labelled Anti-CBP using the KinExA. The fluorescent signal is converted to a voltage signal that is directly proportional to the concentration of free CBP in the equilibrated sample.
(In general: Kinetic exclusion samples the free partner from a solution-phase mixture.)
Usually Kd stands for the free concentration of one partner at which half of the binding sites on the other are occupied at equilibrium, for simple one-to-one binding. Take B1: the dissociation constant (Kd) came out at 0.824 nM. Still for that read-out and setting: the same measure for B2: 0.824 nM; for B3: 1.39 nM.

As to B4, the Kd amounted to 1.28 nM. On the same count and under the same terms, in the case of B5 it was 0.993 nM; in that of B6, 1 nM.

A further assay addresses T2, human LPAR1 (full length LPAR1, SEQ ID NO: 62) (human, UniProt Q92633 1-364).
T2 construct: Also used here for hLPAR1 in HEK293 cells (method 1.15); also called Lysophosphatidic Acid Receptor 1; LPA1
Description: transient-transfection CIFAT (protocol 1.11) on CHO-K1 cells expressing human LPAR1 and alanine variants. Here is the method: (§1) CHO-K1 cells were seeded in clear 96-well plates at 20,000 cells per 200 μL full growth medium and incubated for 24 hours at 37° C. The following day, in a sterile tube, 0.0309 uL/well PEI (Generon, MW 160,000) was diluted into 10 uL/well transfection medium (DMEM supplemented with 2 mM L-glutamine and Penicillin-Streptomycin). The diluted PEI was added to 100 ng/well DNA encoding the target protein (human LPAR1 (SEQ ID NO: 62) unless otherwise stated), before vortexing immediately and incubating the mixture for 10 minutes at room temperature. 200 μL/well full growth medium was added to the PEI-DNA mixture, then medium in wells was taken off and 200 ul full growth medium/PEI/DNA mixture was added in the wells of the adherent cell plate. […] After washing and cell fixation with 4% PFA, the binding of the antibodies was detected using a goat anti-human Alexa Fluor 488 detection antibody (Invitrogen), incubated for 1 hour at room temperature. Fluorescence at 488 nm was measured using a BMG LABTECH ClarioStar plate reader and microscopy images were taken at 10× magnification.
Based on the epitope analysis presented in FIGS. 3 and 4, constructs were designed to test the important residues/interaction regions predicted in silico. […] CHO-K1 cells were transiently transfected with these plasm ids and the binding of an anti-LPAR1 mAb assessed to each of these receptor variants using protocol 1.11. […]
For B7, the binding result is reported as “binds”.

Another assay concerns the target T2, human LPAR1 (full length LPAR1, SEQ ID …). Description: transient-transfection CIFAT (method 1.11), fixed/permeabilised and live cells expressing LPAR1, microscopy. The protocol: as §1, with “plate. The plate was incubated for 24 hours at 37° C. The next day, the medium was discarded and replaced with 200 μL full growth medium. The plate was incubated for 24 hours at 37° C.” for “plate.”, “magnification. […]” for “magnification.”
On to B8, for which the binding result is listed as “binds”.

Regarding B9, the binding result is on record as “binds”.

The values above are taken from patent US20230181671A1 (published 2023).
